System: K4 kissing-loop RNA reporter
Assay: apparent KD of K4 kissing-loop reporter; higher = weaker reporter binding
Details: Eterna round: R107
Description: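 RNA-MaP round R107: designed RNA switches with theophylline, tryptophan, arginine or FMN aptamers are transcribed on-chip within common flanks. They are titrated with a labelled K4 kissing-loop RNA reporter in RNA-MaP buffer (100 mM Tris pH 7.5, 80 mM KCl, 4 mM MgCl2), without ligand or with the indicated ligand. Median apparent KD per design.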

[1] = input ligand: theophylline 20 uM
[2] = input ligand: tryptophan 2.4 mM
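Further: bound reporter read as fluorescence of individual clusters on recovered sequencing chips by microscopy, with normalized cluster intensities fitted with a binding model.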

Sequence | apparent KD of K4 kissing-loop reporter (input ligand: FMN 200 uM) [nM] | apparent KD of K4 kissing-loop reporter (input ligand: arginine 13.2 mM) [nM] | apparent KD of K4 kissing-loop reporter (input ligand: none) [nM] | apparent KD of K4 kissing-loop reporter [1] [nM] | apparent KD of K4 kissing-loop reporter [2] [nM]
GCCGUACGCAUGGAUACCAGAUGGCACUAUUUUCUCCCAGAGUGAUGUUCUGGCCUGCCUAUCCCUUGGCAGCCAUGCGUACGGC | 806 | 616 | 800 | 488 | 671
GCCGUACGCAUGGAUACCAGCAGAACUGCCCUCCCAGUGAUGUUGGGAGGAUCUUUCCUUUGCCCUUGGCAGCCAUGCGUACGGC | 126 | 112 | 124 | 84.8 | 117
GCCGUACGCAUGGAUACCAGUCUAAGAGUGAUGUUCUUACCGAUUGCGCCUGGAUCAUUAGACCCUUGGCAGCCAUGCGUACGGC | 155 | 117 | 126 | 148 | 146
GCCGUACGCAUGGAUACCAGUCUUAGAGUGAUGUUCUAAUCGAUUGCGCCUGGAUCAAUGGACCCUUGGCAGCCAUGCGUACGGC | 129 | 97.3 | 120 | 125 | 112
GCCGUACGCAUGGAUACCAGUUGCGAAGUGAUGUUUCGGGCGAUCAAAGGAUCGCCCUACAACCCUUGGCAGCCAUGCGUACGGC | 158 | 67.3 | 122 | 204 | 120
GCCGUAGAUGGAAGGAGCGUGGUGGACUCGUGAAGUGAUGUUUCAAGUCGAUAUGCCCAACCACAGGUAGGUCGCCAUCUACGGC | 206 | 161 | 169 | 198 | 174
GCCGUAGAUUGAAGGAGCGGGAGAGGGAAAGUGAUGUUUUCUCUAUGACGGCGUCCUCGAUCCCAGGUAGGUCGCAAUCUACGGC | 137 | 80.7 | 99.7 | 80.3 | 105
GCCGUAGAUUGAAGGAGCGUUCUUACUGAGUACGGCAACCGGAAGUGAUGUUUCCAGGUGGAACAGGUAGGUCGCAAUCUACGGC | 102 | 87.4 | 105 | 88 | 93.9
GCGCGUCAUGUCAGCGGUGACACUGUCGAUACCAGUGCCGGAAGGCGCCCUUGGCAGCGACGUGCUGGAGUGAUGUUCCAGCGUU [#2 Exclusion - Theophylline A Attempt #28 (HarryS)] | 136 | 128 | 151 | 131 | 130
GCGCGUGUUAAAGGAUAUAGCAGGUGAUACAAGAAAGUGAGUGAUGUUUAUGUAGAUGAUGAUAUGUUAGAAGGUUAACACGCGC [abcdefghijklmnopqr] | 784 | 635 | 966 | 688 | 629
GCGGCGGGCCAAGGAUAUAUUUUGGAGUGAUGUUGUUCAUUUAUUUGAGCUAGUGAUGUUGGUCGAAUAGAAGGUGGCCCGCCGC [whbob_Ex_FMNB__2th219] | 65.8 | 29.4 | 56.9 | 35.9 | 46
GCGUAGAUUAGCAGUGAUGUUGCUACGGAAGGAGCGCGUGAAAACGCAGGUAGGUCGCCGACAAAAUUAAUUUUAAUGUCUGCGC [KL-SSArg-A6] | 469 | 448 | 596 | 423 | 365
GCUAGUUUGGAAGGAUAUUCGUGCGAUCAAGUCAAACUUUACUGAGGGCGUUUUGGAGUGAUGUUCGAAGAAGGUCCCUUACUUA [theeternabot_exclusion_KL_FMN_B_28] | 1400 | 816 | 999 | 664 | 758
GCUCAGGAGUGAUGUUCCUAGUGAUGUUAACGAGGACCGGUACGGCCGCCACUCGAUACGGCCGGACCGUAGGAUAAACUAGAGC [Same State - Tryptophan A (Freestyle 10)] | 292 | 238 | 261 | 351 | 340
GGAAGAAGUGGUGUUGAUUAAGAAGCGGAAGGAGCGCCGAAGAAGGCAGGUAGGUCGCCGAAAUAUAGUGAUGUUAUAUAAAAGG [ExArg.A] | 168 | 170 | 229 | 168 | 199
GGAAGACACCUGAGUGAUGUUCGGGUGUGCCGAGGACCGGUACGGCCGCCACUCGGGUGGUACAGUUACUGAUUGGACCGCUAUC [Arbirace] | 127 | 203 | 275 | 603 | 204
GGAGAGAACUGAAGGAGCGGCAAGAGAGAAGGAAAUAUAGUGAUGUUAUAUAAGAGAGAGAGCCAGGUAGGUCGCAGAGGGAGGA [ExArgB.A] | 201 | 153 | 147 | 164 | 149
GGAGGCUAUGCAGGAUAUAGUCGGUUGAGUGAUGUUUAACGACUAAACCUUCUAAGUCACAGCCCGCUAGAAGGGCAUAGCCUCC | 427 | 225 | 258 | 229 | 266
GGAGGGAUCUCGGCCGCCACUCGUAAGAAAUGGGCCUCAGGGAUAUAGUGAUGUUAUGUAAAGAAGAGGACCGGGAGAAAGAAGG [ExTryptoB.Dd] | 222 | 208 | 247 | 306 | 209
GGAGUUACCUGGGAUACCAGUCGGAGGCCCAGAGCUCGGAGUGAUGUUCUGGGAUGUUUCGGCCCUUGGCAGCUCUGGGUCUCCG [#2 Exclusion - Theophylline B Attempt #4 (HarryS)] | 822 | 452 | 583 | 648 | 571
GGAGUUACCUGGGAUACCAGUCGGAGUCCUAGAGCUCGGAGUGAUGUUCUGGGAUGUUUCGGCCCUUGGCAGCUCUGGGACUCCC [#2 Exclusion - Theophylline B Attempt #11 (HarryS)] | 615 | 470 | 949 | 921 | 630
GGAGUUACCUGGGAUACCAGUCGGAGUCUCAGAGCUCGGAGUGAUGUUCUGGGAUGUUUCGGCCCUUGGCAGCUCUGGGACUCCU [#2 Exclusion - Theophylline B Attempt #17 (HarryS)] | 698 | 569 | 747 | 788 | 512

Sequence | apparent KD of K4 kissing-loop reporter (input ligand: FMN 200 uM) [nM] | apparent KD of K4 kissing-loop reporter (input ligand: arginine 13.2 mM) [nM] | apparent KD of K4 kissing-loop reporter (input ligand: none) [nM] | apparent KD of K4 kissing-loop reporter [1] [nM] | apparent KD of K4 kissing-loop reporter [2] [nM]
GGAUAGGACACAGGAUAUGGGCUAGGCAAGAAUAACUUGUCUAGCAAAUCCAUGAGGAGUGAUGUUCCAGAAGGGUGUCCUAUCG [FmnBX 1 C11+G75] | 431 | 111 | 94.9 | 97.3 | 86.7
GGAUAGGACAGAGGAUAUCUCUGAGGCAAGAAAACUUGUCUCUAAAGAGAUGACUCAGUGAUGUUGAGAGAAGGCUGUCCUAUCG [FmnBX 9 - #SwitchBubble #StaticStem] | 211 | 143 | 152 | 155 | 148
GGAUAGGAUAGAGGAUAUGGAAAACACAGAAAUAACUUGUUGUGUUUAUCCAUAGGGAGUGAUGUUCCAGAAGGCUGUCCUAUCG [MatMod 20 - Jieux - Exclusion - FMN B] | 284 | 200 | 192 | 219 | 151
GGAUAGGAUAGAGGAUAUGGAUUAGGCAAGAAUAACUUGUCUUGUAAAUCCAUGAGGAGUGAUGUUCCAGAAGGCUGUCCUAUCG [MatMod 6 - Jieux - Exclusion - FMN B] | 233 | 113 | 116 | 117 | 94.3
GGAUAGGAUAGAGGAUAUGGGCUAGGCAAGAAUAACUUGUCUAGCAAAUCCAUGAGGAGUGAUGUUCCAGAAGGCUGUCCUAUCG [FmnBX 1 U9] | 901 | 169 | 152 | 211 | 128
GGAUCCACCAGUGAUGUUGGAGAAAACUUCAAGGAUAUGACGAAAGUCAGAAGGUGGUAGACUGGACAAAGUCCGGUGGGAUCCA [FmnA10 U29+G78] | 622 | 214 | 264 | 566 | 198
GGAUUGCCAGUGAUGUUGGCAUAAACUGAAGGAGCGCGUGAAAACGCAGGUAGGUCGCAGAACCUUGCCAACUAUUUUAUUUACC [Ex Arginine A K4 23] | 89.3 | 118 | 97.9 | 103 | 79.8
GGCACGGUGACGCGGCUGCCGUGCGCUUGGGAGGAUAUGUUUCGUGACAGAAGGCCCAGUGAUGUUGGGUCUGUUCAAAAGGACU [Edmatianri] | 339 | 104 | 125 | 121 | 104
GGCAGUGAUGUUGCCAGUGGCAGAUGCGAAGGAGCGCGGUGAGACGCAGGUAGGUCGCGCAUUGAAAUUGCUGUCACUAAAAUGC [#1] | 261 | 274 | 290 | 320 | 238
GGCAGUGAUGUUGCCAGUGGCAGAUUGGAAGGAGCGUGGUGAGACACAGGUAGGUCGCUAAUUGAAGUUGCUGUCACUAAAAUGC [whbob_Ex_Arginine_A_2t131] | 276 | 299 | 307 | 260 | 241
GGCAUAGUCUCAACGUGUGGUUGGGUUGGGAAGGAUAUUUGAUCGAAAAGAAGGUCCCGCAUUGAGUGAUGUUCAAGGGCUCCAA [theeternabot_exclusion_KL_FMN_A_26] | 226 | 220 | 262 | 213 | 246
GGCGAAUAAAAUCGCCUAGAGAGAAAGGAUACCAGCACCCGGCGGUGCCCUUGGCAGCCUAGCCCAGUGAUGUUGGGUCCUCUAA [Biaveinbe] | 263 | 121 | 140 | 345 | 206
GGCUCCUACGGAGGAUAUAGUAGCCCAGAGUGAUGUUCUAGGGUGUUUUCCGAUUUAGUCAUUGUUCUAGAAGGCCGUAGGAGCC | 266 | 177 | 189 | 183 | 210
GGCUUAUUCUAUGAUACCAGCGUCACAUCGGGACUGCGCACGCAGCAGGCGAGUGAUGUUCGCCCUUGGCAGCAUCUCGGCGACU [theeternabot_exclusion_KL_Theo_B_26] | 373 | 230 | 249 | 250 | 232
GGCUUGCCAGUGAUGUUGGCAUAAACUGAAGGAGCGCGUGAAAACGCAGGUAGGUCGCAGAACCUUGCCAACUAUUUUAUUUGCC [Ex Arginine A K4 24] | 192 | 223 | 212 | 252 | 210
GGGAAGAAGGCGGCCGCCACUGCAGAAGAGACAGAGAGGGAAGAAGAGGAGUGAUGUUCCAAGAACAGGACCGGGCCAAGAAGGG [whbob_SS_Tryp_B_t29] | 598 | 137 | 119 | 284 | 92.9
GGGAAGGAGUGAUGUUUCUUCUGAAUUUCUAAGGAUAUACGAUGCGGUAGAAGGUAGAUGCCUUGCAGGAAAUGUUCACCACGCG [theeternabot_exclusion_KL_FMN_A_2] | 218 | 146 | 150 | 184 | 158
GGGAGUAGUGCGGCCGCCACUGAGAAAGAAGAAGAAUAUAGUGAUGUUAUGUGGGAAAGGAAGAACAGGACCGGGCAUUAGAUUU [#21 K4 Tryptophan B Same State] | 821 | 450 | 488 | 441 | 499
GGGAGUAGUGCGGCCGCCACUGAGAAAGAAGAAGAAUGUAGUGAUGUUAUGUAGGAAAGGAAGAACAGGACCGGGCAUUAGAUUU [SSTRyptB.H] | 478 | 443 | 354 | 840 | 497
GGGUCAGUCUGAAGGAGCGGCCAGACAGAGCAGUGAUGUUGCUCCUCCGGAAACGGUGUCGGCCAGGUAGGUCGCAGAUUGGCUC [Dienralais mod v1] | 153 | 122 | 137 | 126 | 124
GGGUUGAACUGAAGGAGCGAGAAAUAGAAAGUAAGAAGAUAAGCUAGUGAUGUUAGAAAUUCUCAGGUAGGUCGCAGUAAGAAUU [V3] | 338 | 325 | 354 | 280 | 258
GGUAGCAUGAUGGAUACCAGUCCAAAUGGAGUGAUGUUCCAACAACAGGUUAGGCUGCUGGACCCUUGGCAGCCGUCAUGCUACC | 141 | 120 | 160 | 121 | 133

Source: the supplement of paper PMC9170038
